B1: Protein PTHB1 (Homo sapiens), Q3SYG4 (parent)
chain: MSLFKARDWWSTILGDKEEFDQGCLCLANVDNSGNGQDKIIVGSFMGYLRIFSPHPAKTGDGAQAEDLLLEVDLRDPVLQVEVGKFVSGTEMLHLAVLHSRKLCVYSVSGTLGNVEHGNQCQMKLMYEHNLQRTACNMTYGSFGGVKGRDLICIQSMDGMLMVFEQESYAFGRFLPGFLLPGPLAYSSRTDSFLTVSSCQQVESYKYQVLAFATDADKRQETEQQKLGSGKRLVVDWTLNIGEQALDICIVSFNQSASSVFVLGERNFFCLKDNGQIRFMKKLDWSPSCFLPYCSVSEGTINTLIGNHNNMLHIYQDVTLKWATQLPHIPVAVRVGCLHDLKGVIVTLSDDGHLQCSYLGTDPSLFQAPNVQSRELNYDELDVEMKELQKIIKDVNKSQGVWPMTEREDDLNVSVVVSPNFDSVSQATDVEVGTDLVPSVTVKVTLQNRVILQKAKLSVYVQPPLELTCDQFTFEFMTPDLTRTVSFSVYLKRSYTPSELEGNAVVSYSRPTDRNPDGIPRVIQCKFRLPLKLICLPGQPSKTASHKITIDTNKSPVSLLSLFPGFASQSDDDQVNVMGFHFLGGARITVLASKTSQRYRIQSEQFEDLWLITNELILRLQEYFEKQGVKDFACSFSGSIPLQEYFELIDHHFELRINGEKLEELLSERAVQFRAIQRRLLARFKDKTPAPLQHLDTLLDGTYKQVIALADAVEENQGNLFQSFTRLKSATHLVILLIALWQKLSADQVAILEAAFLPLQEDTQELGWEETVDAAISHLLKTCLSKSSKEQALNLNSQLNIPKDTSQLKKHITLLCDRLSKGGRLCLSTDAAAPQTMVMPGGCTTIPESDLEERSVEQDSTELFTNHRHLTAETPRPEVSPLQGVSE
partner: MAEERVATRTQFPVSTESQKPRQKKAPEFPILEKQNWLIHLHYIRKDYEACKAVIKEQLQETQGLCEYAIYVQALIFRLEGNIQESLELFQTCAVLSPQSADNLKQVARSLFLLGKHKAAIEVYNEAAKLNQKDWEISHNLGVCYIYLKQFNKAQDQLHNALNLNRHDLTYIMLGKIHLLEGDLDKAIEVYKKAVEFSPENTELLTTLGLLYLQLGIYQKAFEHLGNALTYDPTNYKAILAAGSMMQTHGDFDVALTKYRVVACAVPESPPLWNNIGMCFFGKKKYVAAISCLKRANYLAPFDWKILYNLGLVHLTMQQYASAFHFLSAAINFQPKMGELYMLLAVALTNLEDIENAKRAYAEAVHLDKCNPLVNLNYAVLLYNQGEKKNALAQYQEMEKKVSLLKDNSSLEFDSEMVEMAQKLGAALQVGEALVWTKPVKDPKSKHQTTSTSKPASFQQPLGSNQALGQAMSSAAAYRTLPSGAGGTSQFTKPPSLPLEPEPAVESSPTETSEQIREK

Variants of: B1
Conditions: with bbs4_human BBS4, Q96RK4
With D804F the “effect of a mutation on the interaction” value was “disrupting interaction strength”. For D804E, the “effect of a mutation on the interaction” value was “with no effect”. For K809E, the “effect of a mutation on the interaction” value was “with no effect”. For K809A, the “effect of a mutation on the interaction” value was “with no effect”. For A792K, the “effect of a mutation on the interaction” value was “with no effect”. A792E was tested, and the “effect of a mutation on the interaction” value was “with no effect”. In the case of P834A, the “effect of a mutation on the interaction” value is reported as “with no effect”. In the case of P834K, the “effect of a mutation on the interaction” value is reported as “with no effect”. For P834E, the “effect of a mutation on the interaction” value was “with no effect”. G822A was tested, and the “effect of a mutation on the interaction” value was “with no effect”. In the case of G822K, the “effect of a mutation on the interaction” value is reported as “with no effect”. With G822E the “effect of a mutation on the interaction” value was “with no effect”. With C843K the “effect of a mutation on the interaction” value was “with no effect”. With C843E the “effect of a mutation on the interaction” value was “with no effect”. In the case of C843A, the “effect of a mutation on the interaction” value is reported as “with no effect”. With L799A the “effect of a mutation on the interaction” value was “with no effect”. In the case of L799E, the “effect of a mutation on the interaction” value is reported as “with no effect”. With L799K the “effect of a mutation on the interaction” value was “with no effect”. In the case of A832K, the “effect of a mutation on the interaction” value is reported as “with no effect”. With A832E the “effect of a mutation on the interaction” value was “with no effect”. For G842K, the “effect of a mutation on the interaction” value was “with no effect”. G842A was tested, and the “effect of a mutation on the interaction” value was “with no effect”. For G842E, the “effect of a mutation on the interaction” value was “with no effect”. In the case of P847A, the “effect of a mutation on the interaction” value is reported as “with no effect”. For P847E, the “effect of a mutation on the interaction” value was “with no effect”. In the case of P847K, the “effect of a mutation on the interaction” value is reported as “with no effect”. D817E was tested, and the “effect of a mutation on the interaction” value was “with no effect”. In the case of D817K, the “effect of a mutation on the interaction” value is reported as “with no effect”. With D817A the “effect of a mutation on the interaction” value was “with no effect”. L795A was tested, and the “effect of a mutation on the interaction” value was “with no effect”. In the case of L795K, the “effect of a mutation on the interaction” value is reported as “with no effect”. In the case of L795E, the “effect of a mutation on the interaction” value is reported as “with no effect”. With E848A the “effect of a mutation on the interaction” value was “with no effect”. In the case of E848K, the “effect of a mutation on the interaction” value is reported as “with no effect”. For P802K, the “effect of a mutation on the interaction” value was “with no effect”. With P802E the “effect of a mutation on the interaction” value was “with no effect”. With P802A the “effect of a mutation on the interaction” value was “with no effect”. P802T was tested, and the “effect of a mutation on the interaction” value was “disrupting interaction strength”. G841K was tested, and the “effect of a mutation on the interaction” value was “with no effect”. G841E was tested, and the “effect of a mutation on the interaction” value was “with no effect”. In the case of G841A, the “effect of a mutation on the interaction” value is reported as “with no effect”. T844A was tested, and the “effect of a mutation on the interaction” value was “with no effect”. For T844E, the “effect of a mutation on the interaction” value was “with no effect”. T844K was tested, and the “effect of a mutation on the interaction” value was “with no effect”. For L825E, the “effect of a mutation on the interaction” value was “with no effect”. For L825K, the “effect of a mutation on the interaction” value was “with no effect”. In the case of L825A, the “effect of a mutation on the interaction” value is reported as “with no effect”. With Q791E the “effect of a mutation on the interaction” value was “with no effect”. Q791L was tested, and the “effect of a mutation on the interaction” value was “disrupting interaction strength”. Q791K was tested, and the “effect of a mutation on the interaction” value was “with no effect”. For Q791A, the “effect of a mutation on the interaction” value was “with no effect”. In the case of M839E, the “effect of a mutation on the interaction” value is reported as “disrupting interaction strength”. In the case of M839A, the “effect of a mutation on the interaction” value is reported as “disrupting interaction strength”. M839K was tested, and the “effect of a mutation on the interaction” value was “with no effect”. For T805E, the “effect of a mutation on the interaction” value was “with no effect”. With T805A the “effect of a mutation on the interaction” value was “with no effect”. For T805K, the “effect of a mutation on the interaction” value was “with no effect”. D830K was tested, and the “effect of a mutation on the interaction” value was “with no effect”. For D830A, the “effect of a mutation on the interaction” value was “with no effect”. For D830E, the “effect of a mutation on the interaction” value was “with no effect”. In the case of Q835E, the “effect of a mutation on the interaction” value is reported as “with no effect”. Q835K was tested, and the “effect of a mutation on the interaction” value was “with no effect”. With Q835M the “effect of a mutation on the interaction” value was “disrupting interaction strength”. Q835A was tested, and the “effect of a mutation on the interaction” value was “with no effect”. With S797A the “effect of a mutation on the interaction” value was “with no effect”. With S797K the “effect of a mutation on the interaction” value was “with no effect”. S797E was tested, and the “effect of a mutation on the interaction” value was “with no effect”. For V838A, the “effect of a mutation on the interaction” value was “disrupting interaction strength”. With V838K the “effect of a mutation on the interaction” value was “disrupting interaction strength”. V838E was tested, and the “effect of a mutation on the interaction” value was “disrupting interaction strength”. For S806A, the “effect of a mutation on the interaction” value was “with no effect”. For S806K, the “effect of a mutation on the interaction” value was “with no effect”. For S806E, the “effect of a mutation on the interaction” value was “with no effect”. With T829K the “effect of a mutation on the interaction” value was “with no effect”. With T829E the “effect of a mutation on the interaction” value was “with no effect”. T829A was tested, and the “effect of a mutation on the interaction” value was “with no effect”. With L815K the “effect of a mutation on the interaction” value was “with no effect”. In the case of L815A, the “effect of a mutation on the interaction” value is reported as “with no effect”. With L815E the “effect of a mutation on the interaction” value was “with no effect”. L827E was tested, and the “effect of a mutation on the interaction” value was “with no effect”. L827K was tested, and the “effect of a mutation on the interaction” value was “with no effect”. L827A was tested, and the “effect of a mutation on the interaction” value was “with no effect”. In the case of A831E, the “effect of a mutation on the interaction” value is reported as “with no effect”. For A831K, the “effect of a mutation on the interaction” value was “with no effect”. For N800A, the “effect of a mutation on the interaction” value was “with no effect”. With N800E the “effect of a mutation on the interaction” value was “with no effect”. N800K was tested, and the “effect of a mutation on the interaction” value was “with no effect”. With H811E the “effect of a mutation on the interaction” value was “with no effect”. With H811K the “effect of a mutation on the interaction” value was “with no effect”. For H811A, the “effect of a mutation on the interaction” value was “with no effect”.

Reference: IntAct's records for PubMed 29039417
